41 sequences from the nanobody polyreactivity screen of Harvey et al. (2022) can be followed below.

The nature of the data set: yeast display, Sf9 membrane polyspecificity reagent, FACS + sequencing; frameworks hold sequencing errors. In a few lines: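 Galactose-induced (36–48 hours) yeast carrying a synthetic nanobody display library were exposed to 10% biotinylated, detergent-solubilized Sf9 membrane reagent at 4 °C for 1 hour. FACS followed streptavidin microbead enrichment, using low and high (top ~1%) gates for expression (anti-HA) and reagent binding (streptavidin). Colony PCR, MiSeq 2 × 250 sequencing and CDR-length filtering followed. Labels for polyreactivity reflect the gate of origin.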
Take “QVQLVESGGGLVQAGGSLRLSCAASGSTLGYNAMGWYRQATGKERELVAGISRNGGSTFYADSVKGRFTISRDYAKYTLYLQMNSLKPEDTAVYYCARYYTHSGGFRVRIYYYWGQATQVTVSS”: the “polyreactivity (PSR sort gate)” value is recorded as “low polyreactivity”. Turning to “QVQLVESGGGLVQAGGSLRLSCAASGSTLGYNVMAWYRQAPGKERELVAAISGEGSTNYADSVKGRFTISRDNAKNTVYLQMNSLKPEDTAVYYCAADSRDDYEYWRQGTQVTVSS”, the “polyreactivity (PSR sort gate)” value is “low polyreactivity”. For “QVQLVESGGGLVQAGGSLRLSCAASGSTLGYNVMGCYIQAPGKERELVAAISGDGSTNYADSVKGRFTISRDNAKNTVYLQMNSLKPEDTAVYYCAARPGWFAGYEYWGQGTQVTVSS”, the “polyreactivity (PSR sort gate)” value is given as “low polyreactivity”. The entry for “QVQLVESGGGLVQAGGSLRLSCAASGSTLGYYAMGWYRQAPGKERELVAAIRYSDGNTYYADSVKGRFTISRDNAKNTVYLQMNSLKPEDTAVYYCAADGGYYGREYWGQGTQVTVSS” is “high polyreactivity”; for “QVQLVESGGGLVQAGGSLRLSCAASGSTLGYYTMGWYRQAPGKERELVAAIDWSGGSTYYADSVKGRFTISRDNAKNTVYLQMNSLKPEDTAVYYCAVDYTYSYVDYWSEYDYWGQGTQVTVSS” it is “low polyreactivity”; for “QVQLVESGGGLVQAGGSLRLSCAASGSTLHSYAMGWYRQAPGKERELVAAISFRGGSTYADSVKGRFTISRDNAKNTVYLQMNSLKPEDTAVYYCAAYSLYTMYWGQGTQVTVSS” it is “low polyreactivity”. For the sequence “QVQLVESGGGLVQAGGSLRLSCAASGSTLIFYAMGWYRQAPGKERELVAAIRFSGGTTYYADSVKGRFTISRDNAKNTVYLQMNSLKPEDTAVYDCAADPRPAYGYYYLYADFDYWGLGTQVTVSS”, the “polyreactivity (PSR sort gate)” value was “low polyreactivity”. To “QVQLVESGGGLVQAGGSLRLSCAASGSTLIGYAMGWYRQAPGKERELVAVINRSGGRTYYADSVKGRFTISRDNSKNTVYLQMNSLKPEDTAVYYCAARPTALSYDSWGQGTQVTVSS” belongs “high polyreactivity”; to “QVQLVESGGGLVQAGGSLRLSCAASGSTLKLYVMGWYRQAPGKERELVAAISYSGGSTNYADSVKGRFTISRDNAKNTVYLQMNSLKPEDTAVYYCAAAGYKWYYKYYYWGQGTQVTVSS”, “high polyreactivity”. The entry for “QVQLVESGGGLVQAGGSLRLSCAASGSTLKSNVMGWYRQAPGKERELVAAISSSGGSTSYADSVKGRFTISRDNAKNTVYLLMKSLNPEDTAVYYCAARMGRYFWNSGVDYWGQGTQVTVSS” is “high polyreactivity”. With “QVQLVESGGGLVQAGGSLRLSCAASGSTLLGYTMGWYRQAPGKERELVAVISWSGGGTYYADSVKGRFTISRDNAKNTVYLQMNSLKPEDTAVYYCAAETVLGYWYYRKYYYWGQGTQVTVSS”, the “polyreactivity (PSR sort gate)” value is on record as “high polyreactivity”. As to “QVQLVESGGGLVQAGGSLRLSCAASGSTLLSYTMGWYRQAPGKERELVASITTSGGSTYYADSVKGRFTISRDNAKNTVYLQMNSLKPEDTAVYYWGQGTQVTVSS”, the “polyreactivity (PSR sort gate)” value is given as “low polyreactivity”. Regarding “QVQLVESGGGLVQAGGSLRLSCAASGSTLLTYTMGWYRQAPGKERELVASITTSARSTYYADSVKGRFTISRDNAKNTVYLQMNSLKPEDTAVYYWGQGTQVTVSS”, the “polyreactivity (PSR sort gate)” value was “low polyreactivity”.

As to “QVQLVESGGGLVQAGGSLRLSCAASGSTLNRYAMGWYRQAPGKERELVAAISISGGRTYYADSVKGRFTISRDNAKNTVYLQMNSLKPEDTAVYYCAADQYYYRYIRTSKYDYWGQGTQVTVSS”, the “polyreactivity (PSR sort gate)” value is on record as “high polyreactivity”. Regarding “QVQLVESGGGLVQAGGSLRLSCAASGSTLNSYVMGWYRQAPGKERELVATIRSGSSTNYADSVKGRFTISRDNAKNTVYLQMNSLKPEDTAVYDCAADAYSLCYDSWGQGTQVTVSS”, the “polyreactivity (PSR sort gate)” value is “low polyreactivity”. In the case of “QVQLVESGGGLVQAGGSLRLSCAASGSTLNYNAMGWYRQAPGKERELVAAISWSGGSTYYADSVKGRFTISRDNAKNTVYLQMNSLKPEDTAVYYCAADQSTVLDVGSWGQGTQVTGSS”, the “polyreactivity (PSR sort gate)” value is reported as “low polyreactivity”. For “QVQLVESGGGLVQAGGSLRLSCAASGSTLNYYAMGWYRQAPGKERELVAAITWSGGSTSYADSVKGRFTISRDNAKNTVYLPMNSLKRDDTAVYYCATDFPTVQLYETDWLSSDMGYWGQGTQVNVSS”, the “polyreactivity (PSR sort gate)” value is reported as “low polyreactivity”. On to “QVQLVESGGGLVQAGGSLRLSCAASGSTLPANAMGWYRQAPGKERELVAAITITTDGSTYYADSVKGRFTISRDNAKNTVYLQMNSLKAEDTAVYYCAVARYRYHIRKMGYWGQGTQVTVSS”, for which the “polyreactivity (PSR sort gate)” value is “low polyreactivity”. On to “QVQLVESGGGLVQAGGSLRLSCAASGSTLPGNVMGWYRQAPGKERELVAAISKRGASTYYADSVKGRFTISRDNAKNNVYLQTPRLKPEDSAVYYCASRTRGSVVRFDYWGQGTQVTVSS”, for which the “polyreactivity (PSR sort gate)” value is “high polyreactivity”. In the case of “QVQLVESGGGLVQAGGSLRLSCAASGSTLPSYAMGWYRQAPGKERELVAAISSSGGRTYYADSVKGRFTISRDNAKNTVYLQMNSLKPEDTAVYYCAALSVANYHGTDSGYWGQGTQVTVSS”, the “polyreactivity (PSR sort gate)” value is given as “high polyreactivity”. For the sequence “QVQLVESGGGLVQAGGSLRLSCAASGSTLPTNAMGWYRQAPGKEREFVAAISDNGGSTYYADSVKGRFTISRDNAKNTVYLQMNSLKPEDTAVYYCAADNFAPEFYYWGQGTQVTVSS”, the “polyreactivity (PSR sort gate)” value was “low polyreactivity”. With “QVQLVESGGGLVQAGGSLRLSCAASGSTLPYNAMGWYRQAPGKERELVAAISKSGGRTYYADSVKGRFTISRDNAKNTVYLQMNSLKPEDTAVYYCNAGPYRGGGGSSRYYWGQGTQVTVSS”, the “polyreactivity (PSR sort gate)” value is “high polyreactivity”. As for “QVQLVESGGGLVQAGGSLRLSCAASGSTLPYYAMGWYRQAPGKERELVADITARGGTYYADSVKGRFTISRDNAKNTVYLQMNSLKPEDTAVYYCAAEDYWSPGYDYWGQGTQVTVSS”, the “polyreactivity (PSR sort gate)” value is listed as “high polyreactivity”.

Take “QVQLVESGGGLVQAGGSLRLSCAASGSTLRGNAMGWYRQAPGKERELVAAISWSGGITYYADSVKGRFTISRDNAKNTVYLQMNSLKPEDTAVYYCAVDRPRGGPTKYERRTKHGYWGQGTQVTVSS”: the “polyreactivity (PSR sort gate)” value is given as “low polyreactivity”. Consider “QVQLVESGGGLVQAGGSLRLSCAASGSTLRGYAMGWYRQAPGEERELVAAISRRGSGTYYADSVKGRFTISRDNAKHTVYLQMNSLKPEETAVYYCNAVNGDYEFGYWGQGTQVTVSS”, for which the “polyreactivity (PSR sort gate)” value was “high polyreactivity”. “QVQLVESGGGLVQAGGSLRLSCAASGSTLRGYAMGWYRQAPGKEMELVAAITRSGGSTYYADSVKGRFTISRDNAKNTVYLQMNSLKPEDTAVYYCNARAFPYYRRFDYWGQGTQVTVSS”: the “polyreactivity (PSR sort gate)” value is “high polyreactivity”. “QVQLVESGGGLVQAGGSLRLSCAASGSTLRGYVMGWYRQAPGTERELVAAITQRAGSTYYADSVKGRFTISRDNAKNTVYLQMNSLKPEDTAVYYCRRFYFGKYDYWGQGTQVTVSS”: the “polyreactivity (PSR sort gate)” value is recorded as “high polyreactivity”.

On to “QVQLVESGGGLVQAGGSLRLSCAASGSTLRYYAMGWYRQAPGKEREFVAAISWRGGSTYYADSVKGRFTISRDNAKNTVYLQMNSLKPEDTAVYYCAAKALYAYRLYDYWGQGTQVTVSS”, for which the “polyreactivity (PSR sort gate)” value is “high polyreactivity”.

As for “QVQLVESGGGLVQAGGSLRLSCAASGSTLRYYAMGWYRQAPGKERELVAAISTGGSTYYADSVKVRFTISRDNAKNTVYLQMNSLKAEDTAVYYCAAEKKTKTYRYDYWGQGTQVTVSS”, the “polyreactivity (PSR sort gate)” value was “low polyreactivity”. On to “QVQLVESGGGLVQAGGSLRLSCAASGSTLRYYAMGWYRQAPGKERELVAAITYSAGRTSYADSVKGRFTISRDNAKNTVYLQMNSLKPEDTAVYYCATQWHSYLRRYDYWGQGTQVTVSS”, for which the “polyreactivity (PSR sort gate)” value is given as “low polyreactivity”. Take “QVQLVESGGGLVQAGGSLRLSCAASGSTLRYYAMGWYRQAPGKETEFVAAITASGVTTYYADSVKGRFTISRDNAKNTVYLQMNSLKPEDTAVYYCAARLYYNYRDRYNYWGQGTQVTVSS”: the “polyreactivity (PSR sort gate)” value is listed as “high polyreactivity”. Regarding “QVQLVESGGGLVQAGGSLRLSCAASGSTLSLYAMGWYRQAPGKERELVAAITSSGGTYYADSVKGRFTISRDNAKNTVYLQMNGLKPEDTAVYYCAAQSYSRMDYWGQGTQVTVSS”, the “polyreactivity (PSR sort gate)” value is on record as “high polyreactivity”.

Consider “QVQLVESGGGLVQAGGSLRLSCAASGSTLSLYAMGWYRQAPGKERELVAAITSSGGTYYADSVKGRFTISRDNAKNTVYLQMNSLKPEDTAVYYCNAYAKDARSYGYHRVNYWGQGTQVTVSS”, for which the “polyreactivity (PSR sort gate)” value is recorded as “high polyreactivity”.

“QVQLVESGGGLVQAGGSLRLSCAASGSTLSTYVMGWYRQAPGKERELVAAITRRGGITYYADSVKGRFTISRDNAKNTVYLQMNSLKPEDTAVYYCNRLRYPHTFQTGGYWGQGTQVTVSS”: the “polyreactivity (PSR sort gate)” value was “high polyreactivity”.

With “QVQLVESGGGLVQAGGSLRLSCAASGSTLTWNDMGWYRPAPGKERELVAAIDVNDGSTYYADSVKGRFTISRDNAKNTVYLQMNSLKPEDTAVYYCAEPTDYTWLDSTLADDYWGQGTQVTVSS”, the “polyreactivity (PSR sort gate)” value is “low polyreactivity”. On to “QVQLVESGGGLVQAGGSLRLSCAASGSTLTYYAMGWYRQAPGKERELVAAISVSGGRTYYADSVKGRFTISRDNAKYTVYLQMNSLKPEDTAVYYCNALSSRAGGRGYDYWGQGTHVTVSS”, for which the “polyreactivity (PSR sort gate)” value is “high polyreactivity”.

On to “QVQLVESGGGLVQAGGSLRLSCAASGSTLVIYAMGWYRQAPGKEREFVAAIRWSTGRTYYADSVKGRFTISRDNAKNTVYLQMNSLKPEDTAVYYCNASYWAPNSLPDGFRYDSWGQGTQVTVSS”, for which the “polyreactivity (PSR sort gate)” value is “high polyreactivity”. To “QVQLVESGGGLVQAGGSLRLSCAASGSTLVKYAMGWYRQAPGKERELVAAISWSGGRTYYADSVKGRFTISRDNAKNTVYLQMNSLKPEDTAVYYCNAEFRGRPPSFAIKYDYWGQGTQVTVSS” belongs “high polyreactivity”; to “QVQLVESGGGLVQAGGSLRLSCAASGSTLVLNAMGWYRPATGKERELVAAITISGDTTYYADSVKGRFTISRDNAKNTVYLQMNCLKPEDTAVYYCAAVVSTVDCMEYWGQGTQVTVSS”, “low polyreactivity”. For “QVQLVESGGGLVQAGGSLRLSCAASGSTLVRYAMGWYRQAPGKERELVASISYSGGSTHYADSVKGRFTISRDNAKNTVYLQMNSLKPEDTAVYYCAARRYYSWGGHYYWGQGTQVTVSS”, the “polyreactivity (PSR sort gate)” value is reported as “high polyreactivity”. To “QVQLVESGGGLVQAGGSLRLSCAASGSTLVTNSMGWYRKAPGKERELVAAITFSGGTTYYADSVKGRFTISLDNAKNTVYLQMNSLKPEDTAVYYCAAEIWLEYVGYDYCGQGTQVTVSS” belongs “high polyreactivity”.
